In the supplement of paper PMC12764529:
± gives the half width of the 95% confidence interval.

How the values were obtained:
[1] = folding stability dG unfold from trypsin proteolysis; higher = more stable
How it was run: (§1)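 K50 was inferred by Bayesian fitting of sequencing counts obtained after protease digestion of designed mini-proteins. Unfolding free energy was derived by comparison with a sequence-predicted unfolded-state K50 and a shared folded-state K50, for each protease or both combined. The mini-proteins were under 80 residues, had no cysteine, were carried in a PA-tagged cDNA display construct, and were kept only if AlphaFold2 dimer inter-PAE exceeded 15.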

[2] = folding stability dG unfold from chymotrypsin proteolysis; higher = more stable
How it was run: as §1

[3] = folding stability dG unfold (combined trypsin and chymotrypsin); higher = more stable
How it was run: as §1

## GHRIKVNTVHTPSGTFSLTATVRYPDGTTVTYSFNLPSSPNDTFSVSVPESVPLTTVTTSTFQGDTETPTSS [r1_70_JUSTAS]
[1]
  folding stability dG unfold: 1.02 ± 0.044 kcal/mol
[2]
  folding stability dG unfold: 1.69 ± 0.18 kcal/mol
[3]
  folding stability dG unfold: 1.49 ± 0.12 kcal/mol

## GKYYLVNIVVVNEDNKSLVFPKVFPENDPEKVLEEIKKLLEELGFKAKKLITVFEKLPDGNVLVNAVVEVGS [r1_281_TrMRF]
[1]
  folding stability dG unfold: 3.79 ± 0.15 kcal/mol
[2]
  folding stability dG unfold: 5.63 ± 0.25 kcal/mol
[3]
  folding stability dG unfold: 5.57 ± 0.3 kcal/mol

## GLEVKVDITVDPVGGGTRIPVTVSVPGRPIAQATADVDPETGVVNLDLGAESEEERKAALEKLKEAGIKLGS [r1_455_JUSTAS]
[1]
  folding stability dG unfold: 1.1 ± 0.049 kcal/mol
[2]
  folding stability dG unfold: 1.42 ± 0.054 kcal/mol
[3]
  folding stability dG unfold: 1.35 ± 0.083 kcal/mol

## GMPYTVDVVIEEAEDGVIIPIKLSVDGALVAEAVAPVDPVTKKVVIKPGAASKEALDVALEKLKELGIEPGS [r1_455_TrMRF]
[1]
  folding stability dG unfold: -0.487 ± 0.4 kcal/mol
[2]
  folding stability dG unfold: 0.537 ± 0.17 kcal/mol
[3]
  folding stability dG unfold: 0.162 ± 0.26 kcal/mol

## GMTIVPPSSPVTDSSGNYEEYPDSQLYKDSSTGKPIIAFPMSPEELAAGDPAALARREALAKEYGLPEIEPS [r1_438_JUSTAS]
[1]
  folding stability dG unfold: -0.579 ± 0.35 kcal/mol
[2]
  folding stability dG unfold: 0.0509 ± 0.37 kcal/mol
[3]
  folding stability dG unfold: 0.0139 ± 0.25 kcal/mol

## GMTVTHTAEAGGRPLTITVTRSPDGWEVTVTDPDGTPIFSKTIPSDKNATLTLTDSAGNPLVTVNITLPPES [r1_34_JUSTAS]
[1]
  folding stability dG unfold: 4.15 ± 0.11 kcal/mol
[2]
  folding stability dG unfold: 3.8 ± 0.046 kcal/mol
[3]
  folding stability dG unfold: 3.91 ± 0.051 kcal/mol

## GPEVLVETFVDPETGRVVVRVYFPEPDRLVLAVGERGGDGVRVLVVEYEADPLEPRFAEFEFPALPEGFDES [r1_404_TrMRF]
[1]
  folding stability dG unfold: 2.52 ± 0.14 kcal/mol
[2]
  folding stability dG unfold: 2.59 ± 0.054 kcal/mol
[3]
  folding stability dG unfold: 2.44 ± 0.092 kcal/mol

## GSARFEASAFLAELPFPPQRVLVVLVRGEDGRVRLFVFFPDGSVVEFDLETGRVVRVIDLPDAPLPPGLLES [r1_409_TrMRF]
[1]
  folding stability dG unfold: 2.9 ± 0.071 kcal/mol
[2]
  folding stability dG unfold: 3.63 ± 0.075 kcal/mol
[3]
  folding stability dG unfold: 3.39 ± 0.12 kcal/mol

## GSSMTVEVSESVVPGTGKKILHVTVTFGGSDPEVARAQALAYVEKETGLPVVSVTVTRAPDSWTVNMTVVGS [r1_337_JUSTAS]
[1]
  folding stability dG unfold: 2.86 ± 0.085 kcal/mol
[2]
  folding stability dG unfold: 2.63 ± 0.032 kcal/mol
[3]
  folding stability dG unfold: 2.81 ± 0.083 kcal/mol

## IETGEYDIEIELPAPNGYKVKVKFKFVKVDPENGKVYVEVELEVTLPGGKPIKLPLRLVMPAEEIKKFLESS [r1_371_TrMRF]
[1]
  folding stability dG unfold: 2.98 ± 0.072 kcal/mol
[2]
  folding stability dG unfold: 4.94 ± 0.053 kcal/mol
[3]
  folding stability dG unfold: 4.64 ± 0.092 kcal/mol

## KIEIKVHPDGTLLIKAPLELIDLLIKLLKEKGYDAKILKIDPENGYVLIPVKPKPPPIPKPTPEELLKALFS [r1_78_TrMRF]
[1]
  folding stability dG unfold: 2.29 ± 0.096 kcal/mol
[2]
  folding stability dG unfold: 3.78 ± 0.1 kcal/mol
[3]
  folding stability dG unfold: 3.35 ± 0.2 kcal/mol

## KKEEEIKKLEEAVREALKKKGLEVKIVEVKKNKNGEYTLTIELKDGKKIEITIKKEKMTVEDILKKLKELLS [r1_279_TrROS_Hall]
[1]
  folding stability dG unfold: 4.13 ± 0.23 kcal/mol
[2]
  folding stability dG unfold: 4.04 ± 0.15 kcal/mol
[3]
  folding stability dG unfold: 4.13 ± 0.18 kcal/mol

## KKKIKKIEIEIKIPVKSIEEAKEEVEKLAKELKEKFPEIKKIKVEIIKYDEKKGYITVKITIEVNGKKIEFS [r1_52_TrROS_Hall]
[1]
  folding stability dG unfold: 1.56 ± 0.2 kcal/mol
[2]
  folding stability dG unfold: 1.24 ± 0.13 kcal/mol
[3]
  folding stability dG unfold: 1.52 ± 0.28 kcal/mol

## KKKKKKKKKKKKKEKVKVRIRIRLKVKDKETGEWKEIEVEIEIEMSKEEAEEIAKKLAEKYNFEIVEIEIES [r1_488_TrROS_Hall]
[1]
  folding stability dG unfold: 2.95 ± 0.079 kcal/mol
[2]
  folding stability dG unfold: 3.46 ± 0.19 kcal/mol
[3]
  folding stability dG unfold: 3.28 ± 0.21 kcal/mol

## KKKYLVLLEARPRLYEFDENGKLIREIPLLVPFIGEGNDPEKVKEAAEKLFGEEVKILEVFPLEEVEEGKIS [r1_493_TrMRF]
[1]
  folding stability dG unfold: 1.85 ± 0.065 kcal/mol
[2]
  folding stability dG unfold: 2.692 ± 0.017 kcal/mol
[3]
  folding stability dG unfold: 2.4 ± 0.072 kcal/mol

## KLKFKVKIKNPKTNETVEVEVELNEDGTVTVKVNGKLIAKFKIVAKPKPKVETKKVKDANGNEKTYKKVKFS [r1_496_TrROS_Hall]
[1]
  folding stability dG unfold: 1.15 ± 0.12 kcal/mol
[2]
  folding stability dG unfold: 2.41 ± 0.27 kcal/mol
[3]
  folding stability dG unfold: 1.91 ± 0.41 kcal/mol

## KPKIKITITFNKETGKITITAVNKDNNVVVKTEFELKDGKLTMKIEVKNKKTNKTYTIEIEIKLLKPGEKLS [r1_404_TrROS_Hall]
[1]
  folding stability dG unfold: 2.58 ± 0.19 kcal/mol
[2]
  folding stability dG unfold: 4.32 ± 0.094 kcal/mol
[3]
  folding stability dG unfold: 3.86 ± 0.32 kcal/mol

## KRVTIMFNFPPGKPLPLSELAGFARNSGGEVKIQIYNPDDGKWQEITFPGGKIDDVEMFPDGWMVMITVKGS [r1_238_TrROS]
[1]
  folding stability dG unfold: 2.09 ± 0.061 kcal/mol
[2]
  folding stability dG unfold: 2.83 ± 0.089 kcal/mol
[3]
  folding stability dG unfold: 2.52 ± 0.15 kcal/mol

## KTITIIIPMTPEQIEELAKALAEKLGLSEEEVEVVKVEKIKNEDGELYVKITIKLKETGKEITIIVPLKDLS [r1_21_TrROS_Hall]
[1]
  folding stability dG unfold: 1.76 ± 0.08 kcal/mol
[2]
  folding stability dG unfold: 3.2 ± 0.12 kcal/mol
[3]
  folding stability dG unfold: 2.8 ± 0.12 kcal/mol

## KTITIVIKNEDGELYVIKIKLKNGEEKEIVFKSLEELKNAIAKELGLSKEKIEIVEIKPLSPEELKELEKKS [r1_119_TrROS_Hall]
[1]
  folding stability dG unfold: 1.99 ± 0.13 kcal/mol
[2]
  folding stability dG unfold: 3.96 ± 0.14 kcal/mol
[3]
  folding stability dG unfold: 3.33 ± 0.35 kcal/mol

## KTITIVVKVPSLEEVEALAAELAKELNLPPGAKVEVKVEYDEETGYVVVTVTVTNPNGEKIEIKIVVELPDS [r1_84_TrROS_Hall]
[1]
  folding stability dG unfold: 1.86 ± 0.1 kcal/mol
[2]
  folding stability dG unfold: 3.72 ± 0.38 kcal/mol
[3]
  folding stability dG unfold: 3.08 ± 0.22 kcal/mol

## KTKTIVINAKDLTEEQLRELLKKLGVSEEDVEVSEDGKTVVIKIDGVTIVIVASPPKPVVKPDDPEAKKAAS [r1_57_TrROS_Hall]
[1]
  folding stability dG unfold: 1.27 ± 0.051 kcal/mol
[2]
  folding stability dG unfold: 1.75 ± 0.085 kcal/mol
[3]
  folding stability dG unfold: 1.61 ± 0.12 kcal/mol

## KTRHIPIRDALDEAEELIDEGPRMVKITIYNNNGQKHEIETLKDILDKLKSNFPGMPPDNMKVQVEVIPPPS [r1_325_TrROS]
[1]
  folding stability dG unfold: -0.297 ± 0.68 kcal/mol
[2]
  folding stability dG unfold: -0.0938 ± 0.22 kcal/mol
[3]
  folding stability dG unfold: -0.211 ± 0.3 kcal/mol

## KVEIKVEIEVKYNKETGKKVVKIRITVKEGSKEEAEKLAAELAKELFGPNVKVTVEYDKETDEITVTLVFPS [r1_273_TrROS_Hall]
[1]
  folding stability dG unfold: 3.57 ± 0.15 kcal/mol
[2]
  folding stability dG unfold: 4.06 ± 0.18 kcal/mol
[3]
  folding stability dG unfold: 3.96 ± 0.2 kcal/mol

## LDPNKPENIALLEKVEEAAKAVIEELEKAGYKVEKLYVALGPNGIKIAPVTIPPEFIEELKKAGILVIPVLS [r1_134_TrMRF]
[1]
  folding stability dG unfold: 1.49 ± 0.11 kcal/mol
[2]
  folding stability dG unfold: 1.64 ± 0.14 kcal/mol
[3]
  folding stability dG unfold: 1.56 ± 0.26 kcal/mol

## MDDVVRVVLPVRVRIRDPVAPDRPEREVEILLERDVPLDEESLEELLEEAERAAEELARALGGEEAEVEPVS [r1_300_TrMRF]
[1]
  folding stability dG unfold: 0.135 ± 0.09 kcal/mol
[2]
  folding stability dG unfold: 1.54 ± 0.024 kcal/mol
[3]
  folding stability dG unfold: 1.15 ± 0.089 kcal/mol

## MEITITETENGYRVEVKIEITVIDPKTGEPVPLEIPVEAFVPASDPDPEKAAKEAAEKALEEVLKALPEGLS [r1_414_JUSTAS]
[1]
  folding stability dG unfold: 2.33 ± 0.21 kcal/mol
[2]
  folding stability dG unfold: 1.88 ± 0.091 kcal/mol
[3]
  folding stability dG unfold: 1.99 ± 0.19 kcal/mol

## MEVKIKVEIVKVEEVEVKKKKDGKEEKFIRIEIKIEVEAKPGLSEEEIKKLAEELAKKLKELGLEVEVKKES [r1_305_TrROS_Hall]
[1]
  folding stability dG unfold: 0.993 ± 0.091 kcal/mol
[2]
  folding stability dG unfold: 2.15 ± 0.13 kcal/mol
[3]
  folding stability dG unfold: 1.96 ± 0.22 kcal/mol

## MFKPGTKVTFGDKTVEVPEGDELYIFEGKVFGTSEVEAVLENMSDDAVGYKLVVEDETGKIVKVEEFVFKPS [r1_304_TrMRF]
[1]
  folding stability dG unfold: -0.451 ± 0.25 kcal/mol
[2]
  folding stability dG unfold: -0.172 ± 0.51 kcal/mol
[3]
  folding stability dG unfold: -0.406 ± 0.43 kcal/mol

## MIPLTLEYDPEKKVIRLKTPDGKPVIVEAGDKGYRVIIYDPKTGKPTVIPVTEKELLDLAKNPAFNLDLAAS [r1_18_TrMRF]
[1]
  folding stability dG unfold: 1.94 ± 0.025 kcal/mol
[2]
  folding stability dG unfold: 1.23 ± 0.076 kcal/mol
[3]
  folding stability dG unfold: 1.65 ± 0.059 kcal/mol

## MKAHVTVVDLEDRYRARIELELPDGRVLVFEFEFDSWEEAIEFIRGLIAALPEDEVEIDHIEFLPPDGDPSS [r1_169_TrMRF]
[1]
  folding stability dG unfold: 3.92 ± 0.091 kcal/mol
[2]
  folding stability dG unfold: 4.73 ± 0.051 kcal/mol
[3]
  folding stability dG unfold: 4.46 ± 0.1 kcal/mol

## MKIRVEITVRNPDGEELKIEIVLSLEELEELRKEGKPLTLEELKALIEERARKLAEELDLEVEIKIVEIEPS [r1_174_TrROS_Hall]
[1]
  folding stability dG unfold: 4.11 ± 0.35 kcal/mol
[2]
  folding stability dG unfold: 5.06 ± 0.89 kcal/mol
[3]
  folding stability dG unfold: > 6 kcal/mol

## MKKVKVTITITVPEEDKEKVKELIEKLKEAVPNVKVTSVEFDEKTGKITIVVEMTEEELEELKKALKEALES [r1_443_TrROS_Hall]
[1]
  folding stability dG unfold: 2.78 ± 0.11 kcal/mol
[2]
  folding stability dG unfold: 1.47 ± 0.036 kcal/mol
[3]
  folding stability dG unfold: 2.06 ± 0.082 kcal/mol

## MKPLTPDEVKELAKFIANMIRRRMRENGIKDVEIPVKVEPDPNGWYWINVSITFKYNGKPIGRFPIEIWVRS [r1_364_TrROS]
[1]
  folding stability dG unfold: 3.17 ± 0.045 kcal/mol
[2]
  folding stability dG unfold: 3.781 ± 0.019 kcal/mol
[3]
  folding stability dG unfold: 3.57 ± 0.074 kcal/mol

## MKPLTPEEVKKIAEGIAKEIEKAAKALGIDKVEVPVKIEKLPDGGYKIIIEVKLYKDDKKIGTFPIEIYIDS [r1_364_TrMRF]
[1]
  folding stability dG unfold: 3.51 ± 0.34 kcal/mol
[2]
  folding stability dG unfold: 3.1 ± 0.14 kcal/mol
[3]
  folding stability dG unfold: 2.9 ± 0.39 kcal/mol

## MKTIEIEIKLSPEIKEALKEGKPLSLEELVNKIKEEIAKKLGLKEVKVKKIEIKKDENGEIIIKVTIEVKPS [r1_290_TrROS_Hall]
[1]
  folding stability dG unfold: 3.9 ± 0.38 kcal/mol
[2]
  folding stability dG unfold: 2.77 ± 0.091 kcal/mol
[3]
  folding stability dG unfold: 3.31 ± 0.27 kcal/mol
